Molecular target: GST–CDK2/His–CyclinA complex (human | bovine, UniProt P24941 1-298; P30274 1-430)
Experiment: co-IP

GST–CDK2/His–CyclinA complex, sequence (P30274 whole entry, one chain of several): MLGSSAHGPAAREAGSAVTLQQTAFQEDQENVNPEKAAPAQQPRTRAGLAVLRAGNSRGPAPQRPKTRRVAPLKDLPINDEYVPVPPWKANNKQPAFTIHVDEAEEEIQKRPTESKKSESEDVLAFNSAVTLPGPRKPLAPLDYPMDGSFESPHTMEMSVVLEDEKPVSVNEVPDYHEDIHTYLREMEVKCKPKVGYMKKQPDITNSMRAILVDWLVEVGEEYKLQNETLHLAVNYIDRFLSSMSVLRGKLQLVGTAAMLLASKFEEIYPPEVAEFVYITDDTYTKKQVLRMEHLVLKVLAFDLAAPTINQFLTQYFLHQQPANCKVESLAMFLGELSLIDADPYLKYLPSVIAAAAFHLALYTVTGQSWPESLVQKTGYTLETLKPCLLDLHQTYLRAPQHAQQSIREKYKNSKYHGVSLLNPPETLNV

- fold increase of binding against non-phosphorylated GST–p57: ~4 fold
B1: GST–p57 (mouse, wild type) phosphorylated in vitro by activated p38 SAPK (natural protein)
chain: MERLASSDTFPVIARSSACRSLFGPVDHEELGRELRMRLAELNAEDQNRWDFNFQQDVPLRGPGRLQWMEVDSESVPAFYRETVQVGRCRLQLGPRPPPVAVAVIPRSGPPAGEAPDGLEEAPEQPPSAPASAVVAEPTPPATPAPASDLTSDPIPEVTLVATSDPTPDPIPDANPDVATRDGEEQVPEQVSEQGEESGAEPGDELGTEPVSEQGEEQGAEPVEEKDEEPEEEQGAEPVEEQGAEPVEEQNGEPVEEQDENQEQRGQELKDQPLSGIPGRPAPGTAAANANDFFAKRKRTAQENKASNDVPPGCPSPNVAPGVGAVEQTPRKRLR
modifications: phosphothreonine at T143 (phosphorylated in vitro by activated GST–p38 SAPK)
